Numbered stars: 1 amine (or outer) side, 2 acyl side, 3 side chain; on linkers, the order of the positions; unused ones are H or OH. Square brackets hold non-standard residues; d marks the D form. Primed or numbered codes have the meaning given here. HomPqa = 3-hydroxy-2-(4-oxo-6-piperazin-1-yl-4H-quinazolin-3-yl)-propionic acid, O=C(C(CO[*:3])n1cnc2ccc(N3CCN([*:1])CC3)cc2c1=O)[*:2]; Pdp = (6-oxo-2-piperazin-1-yl-1,6-dihydropurin-7-yl)-acetic acid, O=C(Cn1cnc2nc(N3CCN([*:1])CC3)[nH]c(=O)c21)[*:2]; Dqa = (6-[1,4]diazepan-1-yl-4-oxo-4H-quinazolin-3-yl)-acetic acid, O=C(Cn1cnc2ccc(N3CCCN([*:1])CC3)cc2c1=O)[*:2]; Pipa = (1-oxo-7-piperazin-1-yl-1H-isoquinolin-2-yl)-acetic acid, O=C(Cn1ccc2ccc(N3CCN([*:1])CC3)cc2c1=O)[*:2]; Appa = (6-Amino-2-piperazin-1-yl-9H-purin-8-yl)-acetic acid, Nc1nc(N2CCN([*:1])CC2)nc2[nH]c(CC(=O)[*:2])nc12; Cip = (5-Piperazin-1-yl-indole-1-yl)-acetic acid, O=C(Cn1ccc2cc(N3CCN([*:1])CC3)ccc21)[*:2]; Cba′ = (4-Aminomethyl-biphenyl-3-yl)-acetic acid, O=C(Cc1cc(-c2ccccc2)ccc1CN[*:1])[*:2]; Bqa = ((1R,4S)-6-2-Aza-bicyclo[2.2.1]hept-5-yl-4-oxo-4H-quinazolin)-acetic acid; Ppa = (2-piperazin-1-yl-purin-7-yl)-acetic acid; NMeR = CN[C@@H](CCCNC(=N)N)C(=O)O
T1: Y5R
T1 sequence (Q15761 whole entry, species assumed, looked up): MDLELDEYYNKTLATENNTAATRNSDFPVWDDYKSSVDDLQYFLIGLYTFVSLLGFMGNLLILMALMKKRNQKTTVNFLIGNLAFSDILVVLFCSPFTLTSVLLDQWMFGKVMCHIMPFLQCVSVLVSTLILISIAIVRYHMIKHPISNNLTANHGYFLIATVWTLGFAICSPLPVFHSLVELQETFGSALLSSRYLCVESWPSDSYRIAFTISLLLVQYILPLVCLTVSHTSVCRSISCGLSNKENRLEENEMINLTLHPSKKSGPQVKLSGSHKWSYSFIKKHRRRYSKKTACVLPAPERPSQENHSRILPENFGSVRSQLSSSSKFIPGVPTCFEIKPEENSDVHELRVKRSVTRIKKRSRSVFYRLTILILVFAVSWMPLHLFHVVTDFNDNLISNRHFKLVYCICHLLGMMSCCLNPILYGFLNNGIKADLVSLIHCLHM

T2: human NPY2 receptor (human, UniProt P49146 1-381)
T2 sequence (looked up): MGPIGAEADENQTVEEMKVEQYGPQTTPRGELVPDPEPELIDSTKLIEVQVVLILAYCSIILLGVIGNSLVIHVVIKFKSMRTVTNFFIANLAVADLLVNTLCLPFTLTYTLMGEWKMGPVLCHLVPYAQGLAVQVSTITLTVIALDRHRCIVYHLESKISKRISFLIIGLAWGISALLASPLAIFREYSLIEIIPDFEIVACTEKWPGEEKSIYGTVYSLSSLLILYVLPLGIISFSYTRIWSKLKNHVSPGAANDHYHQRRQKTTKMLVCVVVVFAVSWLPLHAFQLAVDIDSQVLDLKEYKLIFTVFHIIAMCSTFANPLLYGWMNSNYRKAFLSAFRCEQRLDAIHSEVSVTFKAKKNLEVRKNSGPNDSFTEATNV


What was measured:
Assay in all cases: cell-based or functional assay
[1] = biological target: T1, Y5R
[2] = biological target: Y4R
[3] = biological target: Y1R
[4] = biological target: T2, human NPY2 receptor

Y1R, sequence (P25929 whole entry): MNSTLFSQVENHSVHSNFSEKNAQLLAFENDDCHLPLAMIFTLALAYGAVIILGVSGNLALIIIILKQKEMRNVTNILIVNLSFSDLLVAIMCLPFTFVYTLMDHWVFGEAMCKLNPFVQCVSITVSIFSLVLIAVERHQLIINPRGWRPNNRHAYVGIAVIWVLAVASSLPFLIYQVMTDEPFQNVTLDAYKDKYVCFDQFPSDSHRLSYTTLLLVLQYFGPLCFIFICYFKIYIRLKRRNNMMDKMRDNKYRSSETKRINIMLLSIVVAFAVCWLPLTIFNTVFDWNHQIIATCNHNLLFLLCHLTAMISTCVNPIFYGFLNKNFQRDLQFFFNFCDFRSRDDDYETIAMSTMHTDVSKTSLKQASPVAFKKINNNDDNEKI

Row | Binder | Y5R EC50 (nM) FLIPR [1] [nM] | Y4R EC50 (nM) FLIPR [2] [nM] | Y1R EC50 (nM) FLIPR [3] [nM] | Y2R EC50 (nM) FLIRR (Ca flux, FLIPR) [4] [nM] | Y2R EC50 (nM) cAMP [4] [nM]
1 | Ac-IK[Appa]RHYLNWVTRQ[NMeR]Y-NH2 [Ac-Ile-Lys-Appa-Arg-His-Tyr-Leu-Asn-Trp-Val-Thr-Arg-Gln-(NMe)Arg-Tyr-NH2] | 3300 | > 5000 | > 5000 | 0.156 | 0.18
2 | Ac-IK[HomPqa]RHYLNWVTRQ[NMeR]Y-NH2 [Ac-Ile-Lys-HomPqa-Arg-His-Tyr-Leu-Asn-Trp-Val-Thr-Arg-Gln-(NMe)Arg-Tyr-NH2] | 4940 | 2790 | > 9000 | 0.6 | 4.35
3 | Ac-IK[Cba′]RHYLNWVTRQ[NMeR]Y-NH2 [Ac-Ile-Lys-Cba-Arg-His-Tyr-Leu-Asn-Trp-Val-Thr-Arg-Gln-(NMe)Arg-Tyr-NH2] | > 30000 | > 30000 | > 30000 | 0.51 | 1.97
4 | Ac-IK[Pdp]RHYLNWVTRQ[NMeR]Y-NH2 (SMILES CC[C@H](C)[C@H](NC(C)=O)C(=O)N[C@@H](CCCCN)C(=O)N1CCN(c2nc3ncn(CC(=O)N[C@@H](CCCNC(=N)N)C(=O)N[C@@H](Cc4c[nH]cn4)C(=O)N[C@@H](Cc4ccc(O)cc4)C(=O)N[C@@H](CC(C)C)C(=O)N[C@@H](CC(N)=O)C(=O)N[C@@H](Cc4c[nH]c5ccccc45)C(=O)N[C@H](C(=O)N[C@H](C(=O)N[C@@H](CCCNC(=N)N)C(=O)N[C@@H](CCC(N)=O)C(=O)N(C)[C@@H](CCCNC(=N)N)C(=O)N[C@@H](Cc4ccc(O)cc4)C(N)=O)[C@@H](C)O)C(C)C)c3c(=O)[nH]2)CC1) [Ac-Ile-Lys-Pdp-Arg-His-Tyr-Leu-Asn-Trp-Val-Thr-Arg-Gln-(NMe)Arg-Tyr-NH2] | > 9000 | > 9000 | > 9000 | 0.037 | 0.24
5 | Ac-IK[Pipa]RHYLNWVTRQ[NMeR]Y-NH2 (SMILES CC[C@H](C)[C@H](NC(C)=O)C(=O)N[C@@H](CCCCN)C(=O)N1CCN(c2ccc3ccn(CC(=O)N[C@@H](CCCNC(=N)N)C(=O)N[C@@H](Cc4c[nH]cn4)C(=O)N[C@@H](Cc4ccc(O)cc4)C(=O)N[C@@H](CC(C)C)C(=O)N[C@@H](CC(N)=O)C(=O)N[C@@H](Cc4c[nH]c5ccccc45)C(=O)N[C@H](C(=O)N[C@H](C(=O)N[C@@H](CCCNC(=N)N)C(=O)N[C@@H](CCC(N)=O)C(=O)N(C)[C@@H](CCCNC(=N)N)C(=O)N[C@@H](Cc4ccc(O)cc4)C(N)=O)[C@@H](C)O)C(C)C)c(=O)c3c2)CC1) [Ac-Ile-Lys-Pipa-Arg-His-Tyr-Leu-Asn-Trp-Val-Thr-Arg-Gln-(NMe)Arg-Tyr-NH2] | 2340 | > 5000 | > 5000 | 0.045 | 0.18
6 | Ac-IK[Cip]RHYLNWVTRQ[NMeR]Y-NH2 (SMILES CC[C@H](C)[C@H](NC(C)=O)C(=O)N[C@@H](CCCCN)C(=O)N1CCN(c2ccc3c(ccn3CC(=O)N[C@@H](CCCNC(=N)N)C(=O)N[C@@H](Cc3c[nH]cn3)C(=O)N[C@@H](Cc3ccc(O)cc3)C(=O)N[C@@H](CC(C)C)C(=O)N[C@@H](CC(N)=O)C(=O)N[C@@H](Cc3c[nH]c4ccccc34)C(=O)N[C@H](C(=O)N[C@H](C(=O)N[C@@H](CCCNC(=N)N)C(=O)N[C@@H](CCC(N)=O)C(=O)N(C)[C@@H](CCCNC(=N)N)C(=O)N[C@@H](Cc3ccc(O)cc3)C(N)=O)[C@@H](C)O)C(C)C)c2)CC1) [Ac-Ile-Lys-Cip-Arg-His-Tyr-Leu-Asn-Trp-Val-Thr-Arg-Gln-(NMe)Arg-Tyr-NH2] | 10700 | > 30000 | > 30000 | 0.14 | 0.36
7 | Ac-IK[Ppa]RHYLNWVTRQ[NMeR]Y-NH2 [Ac-Ile-Lys-Ppa-Arg-His-Tyr-Leu-Asn-Trp-Val-Thr-Arg-Gln-(NMe)Arg-Tyr-NH2] | 1100 | > 5000 | > 5000 | 0.45 | 0.12
8 | Ac-IK[Dqa]RHYLNWVTRQ[NMeR]Y-NH2 [Ac-Ile-Lys-Dqa-Arg-His-Tyr-Leu-Asn-Trp-Val-Thr-Arg-Gln-(NMe)Arg-Tyr-NH2] | 6030 | > 9000 | > 9000 | 0.25 | 0.35
9 | Ac-IK[Bqa]RHYLNWVTRQ[NMeR]Y-NH2 [Ac-Ile-Lys-Bqa-Arg-His-Tyr-Leu-Asn-Trp-Val-Thr-Arg-Gln-(NMe)Arg-Tyr-NH2] | 2870 | > 5000 | > 5000 | 0.072 | 0.17
